Each block holds one substance with its values, some of them ahead of it.
Columns and labels:
[1] = target: IRF5 (222-467) S425D (human); experiment: ITC
[2] = target: IRF5 (222-467) S436D (human); experiment: ITC
[3] = target: IRF5 (222-467) S421D (human); experiment: ITC
[4] = target: IRF5 (222-467) S430D (human); experiment: ITC
[5] = target: IRF5 (residues 222-467) (human); experiment: ITC
[6] = target: IRF5 (222-467) S457D (human); experiment: ITC
[7] = target: IRF5 (222-467) S427D (human); experiment: ITC
[8] = target: IRF5 (222-467) S430D (human); experiment: AUC

Kd [1]: 710 nM | dH [1]: -13.3 kcal/mol | stoichiometry N [1]: 1.04 | Kd [2]: 670 nM | dH [2]: -6.8 kcal/mol | stoichiometry N [2]: 1.07 | Kd [3]: 2280 nM | dH [3]: -6.4 kcal/mol | stoichiometry N [3]: 1.03 | Kd [4]: 560 nM | dH [4]: -15.2 kcal/mol | stoichiometry N [4]: 1.02 | Kd [5]: 1640 nM | dH [5]: -14.4 kcal/mol | stoichiometry N [5]: 1.05 | Kd [6]: 2410 nM | dH [6]: -10.3 kcal/mol | stoichiometry N [6]: 1.08 | Kd [7]: 960 nM | dH [7]: -12.9 kcal/mol | stoichiometry N [7]: 0.98
Substance: CBP (residues 2067-2112) (from UniProt Q92793 2067-2112) (domain or fragment)

stoichiometry N [8]: 2
Substance: IRF5 (222-467) S430D (domain or fragment)
